Patent US6579848B1, “Depigmenting activity of agouti signal protein and peptides thereof” (The United States of America as represented by the …, priority 1995, dated 2003)

B1: agouti protein: Recombinant murine agouti signal protein purified from a baculovirus expression system (protein)
chain: MDVTRLLLATLVSFLCFFTVHSHLALEETLGDDRSLRSDSSMNSLDFSSVSIVALNKKSKKISRKEAEKRKRSSKKKASMKKVARPPPPSPCVATRDSCKPPAPACCDPCASCQCRFFGSACTCRVLNPNC

Assays:
tyrosinase = test: DOPA oxidase enzyme assay on extracts of treated melan-a cells; format: cell-based, murine; settings: extracts of melan-a cells cultured 5 days; 10 nM
Method: Assays for melanogenic catalytic activities as described below were carried out at pH 6.8, 37° C. for 60 minutes. (1) Tyrosine hydroxylase activity was measured using the [^3H]tyrosine assay (Hearing and Ekel, 1976; Hearing, 1987). This method specifically measures the tritiated water produced during the hydroxylation of tyrosine to DOPA. (2) DOPA oxidase activity was measured using incorporation of [3-^14C]DOPA into acid-insoluble melanin as detailed previously (Aroca et al., 1993). (3) DOPAchrome tautomerase activity was measured by HPLC as the disappearance of DOPAchrome substrate and the production of DHICA rather than DHI; data are converted to pmol products by comparison with known standards. The HPLC assay was detailed previously (Palumbo et al., 1987; Tsukamoto et al., 1992). (4) DHI oxidase and DHICA oxidase activities were measured by HPLC as the disappearance of these substrates from reaction mixtures compared to controls for spontaneous auto-oxidation; data are converted to pmol by comparison with known standard (Aroca et al., 1993). (5) Melanin production was measured using incorporation of [^14C]tyrosine into acid-insoluble melanin, also as detailed previously (Hearing and Ekel, 1976; Hearing, 1987); pmol melanin produced are calculated from the radioactive product. […]

TRP1 = test: Northern blotting of TRP1 RNA in melan-a cells; format: cell-based, murine; settings: for RNA level of TRP1: 10 nM, 5 days
Method: These techniques were performed as described previously (Aroca et al., 1993). Briefly, 2.0 μg of mRNA, isolated using a total RNA isolation kit and mRNA purification kit (Promega, Madison, Wis.), were electrophoresed and then blotted to Sure-Blot nylon membranes (Oncor, Gaithersburg, Md.), hybridized with ^32P-labeled probes, dehybridized and rehybridized with other probes again as necessary. TYRS-J, the probe specific for tyrosinase, was kindly provided by Drs. H. Yamamoto and T. Takeuchi, Sendai, Japan and is described in Yamamoto et al Japan J. Genetics Vol 62:271-274, 1987. pMT4, specific for TRP1, was provided by Dr. S. Shibahara, Sendai, Japan and is described in Shibahara, S. et al Nucleic Acid Res. Vol 14:2413-2427, 1986. TRP2a, specific for TRP2 was provided by Dr. I. Jackson, Edinburgh, Scotland and is described in Jackson, I et al. EMBO Vol 11:527-535, 1992. gp100, specific for silver, was provided by Dr. Y. Kawakami, Bethesda, Md. and is described in Kawakami et al PNAS, Vol. 91, 6458-6462, 1994.
Recombinant agouti protein was purified from baculovirus system by Dr. Michael Ollmann in Dr. Gregory Barsh's laboratory by methods known in the art. 2×10^6 cells were seeded per 15 cm diameter dish. The medium was changed everyday, and fresh agouti protein and/or αMSH added everyday usually at 10 nM. To examine transcriptional regulation, total RNA was isolated and Northern blotting performed by methods described in Example 1. The A26 probe to the MSH-R was provided by Dr. R. Cone and is described in Mountjoy et al. Science 257:1248-1251, 1992. At the translational level, metabolic labeling was used in conjunction with immunoprecipitation as described in Example 1. Western blotting and enzyme assay was used to examine function.
The effects of agouti protein on expression of TRP1, TRP2, and the MSH receptor were examined.
Total RNA was extracted from cells using an RNeasy total RNA isolation kit (QIAGEN, Catsworth, Calif.), following the manufacturer's instructions. […]

Row | Molecule | DOPA oxidase (tyrosinase) [pmol/μg protein/hr] | RNA level of TRP1 (TRP1) | level of TRP1 RNA (TRP1; 24 hours, different concentrations)
1 | α-melanocyte stimulating hormone [MSH, reference compound] | 197.5 ± 17.4 | no significant increase | 
2 | B1 | −2.6 ± 3.4 | nearly a fivefold decrease | reduced, but not to the same extent as tyrosinase RNA
